Experiment [1] deals with Deinococcus radiodurans phytochrome (DrBphP) photosensory module, biliverdin-bound, with C-terminal AviTag and HisTag (Deinococcus radiodurans). Description: SEC.
Experiment [2] concerns the target Rhodopseudomonas palustris BphP1 (RpBphP1), mammalian two-hybrid fusion (Rhodopseudomonas palustris). The experiment is described as follows: two-hybrid.
Experiment [3] deals with DrBphP photosensory module, biliverdin-bound, yeast two-hybrid bait (Deinococcus radiodurans (entry strain …, UniProt Q9RZA4, biliverdin-bound)). Description: two-hybrid.
DrBphP photosensory module, biliverdin-bound, yeast two-hybrid bait (Deinococcus radiodurans, sequence (Q9RZA4 whole entry, looked up, tested part not stated): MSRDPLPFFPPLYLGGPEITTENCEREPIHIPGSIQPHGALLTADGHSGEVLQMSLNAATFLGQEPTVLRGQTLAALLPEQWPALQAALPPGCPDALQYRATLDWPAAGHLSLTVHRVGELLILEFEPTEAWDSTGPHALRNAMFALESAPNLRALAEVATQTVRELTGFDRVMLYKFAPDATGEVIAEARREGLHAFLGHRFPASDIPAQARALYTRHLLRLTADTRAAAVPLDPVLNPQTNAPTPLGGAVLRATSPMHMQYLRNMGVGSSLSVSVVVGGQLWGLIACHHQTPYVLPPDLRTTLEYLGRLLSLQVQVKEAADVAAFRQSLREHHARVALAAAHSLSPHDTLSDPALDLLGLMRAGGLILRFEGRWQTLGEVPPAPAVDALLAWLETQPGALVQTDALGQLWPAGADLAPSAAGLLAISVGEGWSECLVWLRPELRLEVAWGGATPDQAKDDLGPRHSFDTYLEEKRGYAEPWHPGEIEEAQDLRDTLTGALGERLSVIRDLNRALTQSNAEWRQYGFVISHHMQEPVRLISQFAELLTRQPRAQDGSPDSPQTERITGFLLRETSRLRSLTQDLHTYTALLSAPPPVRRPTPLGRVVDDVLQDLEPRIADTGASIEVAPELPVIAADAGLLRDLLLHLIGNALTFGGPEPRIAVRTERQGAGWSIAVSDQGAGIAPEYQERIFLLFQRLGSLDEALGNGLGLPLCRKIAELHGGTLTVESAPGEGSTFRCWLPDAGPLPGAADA

What is called stoichiometry N is a count of units in the complex or per binding partner. In experiment [1], “Deinococcus radiodurans phytochrome (DrBphP) photosensory module, biliverdin-bound, with C-terminal AviTag and HisTag (domain or fragment)” returned a stoichiometry N of 2.

For the molecule “PpsR2, mammalian two-hybrid fusion (natural protein)”, in experiment [2], the fold increase of luciferase expression, 775-nm light over dark stood at 2.95 fold.

In the case of “Q-PAS1, a truncated form of PpsR2, mammalian two-hybrid fusion (domain or fragment)”, the fold increase of luciferase expression, 775-nm light over dark in experiment [2] was found to be 2.02 fold.

B1: LDB-6 nanobody, yeast two-hybrid prey (VHH)
VHH: EVQLQASGGGFVQPGGSLRLSCAASGFFSNWSDMGWFRQAPGKEREFVSAISFWADGTEYYADSVKGRFTISRDNSKNTVYLQMNSLRAEDTATYYCAWYGPVNGFYMFDYWGQGTQVTVSS
Consider B1, for which the binding result in experiment [3] is “binds”.

B2: LDB-7 nanobody, yeast two-hybrid prey (VHH)
VHH: EVQLQASGGGFVQPGGSLRLSCAASGSTSDFESMGWFRQAPGKEREFVSAISSWFTNPPYYADSVKGRFTISRDNSKNTVYLQMNSLRAEDTATYYCAHRSIWYHPTYWGQGTQVTVSS
Regarding B2, the binding result in experiment [3] is on record as “binds”.

B3: LDB-4 nanobody, yeast two-hybrid prey (VHH)
VHH: EVQLQASGGGFVQPGGSLRLSCAASGDTSYLYSMGWFRQAPGKEREFVSAISWWWNLTQYYADSVKGRFTISRDNSKNTVYLQMNSLRAEDTATYYCAWSIYFPPGNDYNGYHYWGQGTQVTVSS
Take B3: the binding result in experiment [3] was “binds”.
